These are literature values, as cited in PMC2827818.

This data set addresses IFNalpha2 (Homo sapiens) (UniProt P01563).

IFNAR2 ECD (from UniProt P48551): the Kd is 10 nM.

A word on the Kd: it is the constant that tells how readily two partners part at equilibrium.
